From patent US7432342B2, “Kinase anchor protein muteins, peptides thereof and related documents” (Sequenom, Inc., priority 2002, dated 2008)

Target: T1, RIα-D/D-GFP (Bos taurus, UniProt P00514)
T1 construct: The dimerization/docking (D/D) domain of RIα and full-length RIIα were each fused with green fluorescent protein (GFP); expressed in transfected cells; host or cells: 10T(1/2) cells
Experiment: Co-localization of PKA regulatory domain with mitochondria-targeted AKB domain in 10T(1/2) cells (Example 3)
Format: cell-based
Settings: C-terminal 156 residues of D-AKAP2 fused to D-AKAP1 mitochondrial anchoring domain
Description: The 30 amino acid mitochondrial anchoring domain of D-AKAP1 (Chen et al. (1997) J. Biol. Chem., 272:15247-57; and Huang et al. (1997) J. Biol. Chem., 272:8057-8064) was fused to the C-terminal 156 residues of mouse (amino acids 217-372 of SEQ ID NO:55) and human (amino acids 507-662 of SEQ ID NO:64) D-AKAP2, respectively, followed by a Flag-tag and subcloned into pcDNA4 (Invitrogen, Carlsbad, Calif.). The dimerization/docking (D/D) domain of RIα and full-length RIIα were each fused with green fluorescent protein (GFP) and cloned into pEGFPN1 (Clontech, Palo Alto, Calif.). […] The AKB domain was detected by immuno-staining with monoclonal antibodies against the Flag-tag (Kodak, Rochester, N.Y.) followed by rhodamine-conjugated secondary antibody (Jackson Lab, Bar Harbor, Me.). […]
In this assay, the AKB domain within the C-terminal 156 residues of D-AKAP2 from mouse (Val) and human (Ile) was fused to the mitochondrial anchoring domain from D-AKAP1 and tethered to the outer mitochondrial membrane (Chen et al. (1997) J. Biol. Chem., 272:15247-15257; and Huang et al. (1997) J. Biol. Chem., 272:8057-8064). The binding of the AKB domain with the PKA regulatory domains was detected as the co-transfected PKA regulatory domains co-localized to the mitochondria. […]

T1 sequence (P00514 2-135 limits assumed): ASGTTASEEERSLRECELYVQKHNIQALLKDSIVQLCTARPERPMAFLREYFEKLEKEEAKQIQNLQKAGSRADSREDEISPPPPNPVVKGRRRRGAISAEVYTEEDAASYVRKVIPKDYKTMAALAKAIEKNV

B1: Ile (646) variant: D-AKAP2 AKB domain with Ile at amino acid 646 (SEQ ID NO:64), tested as GST fusion or mitochondria-targeted fusion construct (protein, listed as Homo sapiens)
chain: MRGAGPSPRQSPRTLRPDPGPAMSFFRRKVKGKEQEKTSDVKSIKASISVHSPQKSTKNHALLEAAGPSHVAINAISANMDSFSSSRTATLKKQPSHMEAAHFGDLGRSCLDYQTQETKSSLSKTLEQVLHDTIVLPYFIQFMELRRMEHLVKFWLEAESFHSTTWSRIRAHSLNTMKQSSLAEPVSPSKKHETTASFLTDSLDKRLEDSGSAQLFMTHSEGIDLNNRTNSTQNHLLLSQECDSAHSLRLEMARAGTHQVSMETQESSSTLTVASRNSPASPLKELSGKLMKSIEQDAVNTFTKYISPDAAKPIPITEAMRNDIIARICGEDGQVDPNCFVLAQSIVFSAMEQEHFSEFLRSHHFCKYQIEVLTSGTVYLADILFCESALFYFSEYMEKEDAVNILQFWLAADNFQSQLAAKKGQYDGQEAQNDAMILYDKYFSLQATHPLGFDDVVRLEIESNICREGGPLPNCFTTPLRQAWTTMEKVFLPGFLSSNLYYKYLNDLIHSVRGDEFLGGNVSPTAPGSVGPPDESHPGSSDSSASQSSVKKASIKILKNFDEAIIVDAASLDPESLYQRTYAGKMTFGRVSDLGQFIRESEPEPDVRKSKGSMFSQAMKKWVQGNTDEAQEELAWKIAKMIVSDIMQQAQYDQPLEKSTKL
modifications: GST or mitochondria-targeting fusion
targeting of RIα to the mitochondria: decrease in mitochondrial localization
targeting of RIα to the mitochondria (listed as lie variant): unable to target RIα
